Publication PMC7886694

How the values were obtained:
[1] = system: His-GlnR (Mycobacterium smegmatis); experiment: BLI; settings: 37 C, 200 mM KCl, 2 mM Mg2+, BLI: 10 mM HEPES pH 8.0, 2 mM MgCl2, 0.1 mM EDTA, 10 ug/ml BSA, 0.02% Tween-20 (running buffer), EMSA: 2 ng biotin probe in 10 uL, Beyotime …
His-PrpR = experiment: BLI; settings: 37 C, 200 mM KCl, 2 mM Mg2+, BLI: 10 mM HEPES pH 8.0, 2 mM MgCl2, 0.1 mM EDTA, 10 ug/ml BSA, 0.02% Tween-20 (running buffer), EMSA: 2 ng biotin probe in 10 uL, Beyotime …

Substance: Picl (Msm icl promoter)
- Kd [1]: 33.7 nM
- Kd (His-PrpR): 171 nM
